The nanobody polyreactivity screen of Harvey et al. (2022)

assay: yeast display, Sf9 membrane polyspecificity reagent, FACS + sequencing; frameworks hold sequencing errors
Procedure, shortened: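 A nanobody's polyreactivity label depends on the gate it was sorted from. Yeast display cells were stained with 10% biotinylated, detergent-solubilized Sf9 membrane reagent for 1 hour at 4 °C, enriched on streptavidin microbeads and sorted by FACS. The low and high (top ~1%) gates were set on anti-HA fluorescence for expression and streptavidin fluorescence for reagent binding.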

Row | Sequence | polyreactivity (PSR sort gate)
1 | QVQLVESGGGLVQAGGSLRLSCAASGSTFVGYAMGWYRQAPGKERELVADIDSIGGSTYYADSVKGRFTISRDNAKNTVYLQMNSLKPEDTAVDYCAARRFDTALVLYDYWGQGTQVTVSS | low polyreactivity
2 | QVQLVESGGGLVQAGGSLRLSCAASGSTFVGYARGWYRQEPGNETELVAAISGSGTSTYYADSVKGRFTISLDNAKNTVYLQMNSLKPEDTAVYYCKADPIFVYSSYNYWGQGTQVTVSS | low polyreactivity
3 | QVQLVESGGGLVQAGGSLRLSCAASGSTFVHYAMGWYRQAPGKERELVAAINDGGSTHYADSVKGRFTISRDNAKNTVYLQMNSLKPEDTAVYYCAAEYVWYRYPDYWGAYDYWGQGTQVTVSS | low polyreactivity
4 | QVQLVESGGGLVQAGGSLRLSCAASGSTFVIYAMGWYRQAPGKERELVAAIRRRGGSTYYADSVKGRFTISRDNAKNTVYLQMNSLKPEDSAVYYCATAGQGAFWGQGTQVTVSS | high polyreactivity
5 | QVQLVESGGGLVQAGGSLRLSCAASGSTFVIYAMGWYRQAPGKERELVAAITFSGGRTYYADSVKGRFTISRDNAKNTVYLQMNSLKPEDTAVYYCNARHRNLAEYDYWGQGTQVTVSS | low polyreactivity
6 | QVQLVESGGGLVQAGGSLRLSCAASGSTFVKNVMGWYRQAPGKERELVAGITRGGSTYYADSVKGRFTISRDNAKNTVYLQMNSLKPEDTAVYYCNRVRYPSYDYWGQGTQVTVSS | high polyreactivity
7 | QVQLVESGGGLVQAGGSLRLSCAASGSTFVKSAMGLYRQAPGKERELVAAINWSGGNTYYADSVKGRFKISRYNAKNTVYLQMNSLKPEETAVYYCNADAYRSDFDYWGQGTQVTVSS | high polyreactivity
8 | QVQLVESGGGLVQAGGSLRLSCAASGSTFVLNAMGWYRQAPGKERELVAAITGSGSTKYADSVKGLFTISRDNAKNTVYLQMNSLKPEDTAVYYCATAAVYPIPFGYWGQGTQVTVSS | low polyreactivity
9 | QVQLVESGGGLVQAGGSLRLSCAASGSTFVLYAMGWYRQAPGKERELVATISSGGSTYYADSVKGRFTISRDNAKNTVYLQMNSLKPEDTAVYYCAASYSRFVDWIGDPGYDYWGQGTQVTVSS | low polyreactivity
10 | QVQLVESGGGLVQAGGSLRLSCAASGSTFVNNAMGWYRQAPGKERELVASITQSGGSTFYADSVKGRFTISRDNAKNTVYLQMNSLKPEDTAVYYWGQGTQVTVSS | low polyreactivity
11 | QVQLVESGGGLVQAGGSLRLSCAASGSTFVPYAMGWYRQAPGKERELVAAINIGGRTNYADSVKGRFTISRDNAKNTVYLQMNSLKPEDTAVYYCAAEWGYYARSQYYYWGQGTQVTVSS | low polyreactivity
12 | QVQLVESGGGLVQAGGSLRLSCAASGSTFVPYTMGWYRQAPGKERELVAAISGSGGTDYADSVKGRFTISRDNAKITVYLQLNSLKPEDTAVYYCGTDGLDFWFIYDYWGQGTQVTVSS | low polyreactivity
13 | QVQLVESGGGLVQAGGSLRLSCAASGSTFVPYTMGWYRQAPGKERELVAVITSGGSTNYADSVKGRFTISLDNAKNTVYLQMNSLKPEDTAVYYCDARRRGRKERGEDYWGQGTQVTVSS | high polyreactivity
14 | QVQLVESGGGLVQAGGSLRLSCAASGSTFVQYAMGWYRQAPGKERELVAAIRGRGDSTYYADSVKGRFTISRDNAKNTVYLQMNSLKPEDTAVYYCAARGQGSRGMYYWGQGTQVTVSS | low polyreactivity
15 | QVQLVESGGGLVQAGGSLRLSCAASGSTFVRNAMGWYRQAPGKDRELVAAIRWRSGSTYYADSVKGRFTISRDNAKNTVYLQMNSLKPEDTAVYYCAKAFSRTTYRYDYWGQGTQVTVSS | high polyreactivity
16 | QVQLVESGGGLVQAGGSLRLSCAASGSTFVRNAMGWYRQAPGKERELVAAIRWRSGSTYYADSVKGRFTISRDNAKNTVYFQMNSLKPEDTAVYYCAVKGLGKMNYWGQGTQVTVSS | high polyreactivity

Row | Sequence | polyreactivity (PSR sort gate)
17 | QVQLVESGGGLVQAGGSLRLSCAASGSTFVRNAMGWYRQAPGKERELVAAISWSGGRTYYADSVKGRFTISRDNAKNTVYLQMNSLKPEDTAVYYCAARGYAGVDYDYWGQGTQVTVSS | high polyreactivity
18 | QVQLVESGGGLVQAGGSLRLSCAASGSTFVRNAMGWYRQAPGKERELVAAITRGGRTYYADSVKGRFTISRDNAKNTVYLQLNSLKPEVTAVYYCAKPSSPSLGGVSDRNYWGQGTQVTVSS | low polyreactivity
19 | QVQLVESGGGLVQAGGSLRLSCAASGSTFVRNDKGWYRQAPGTEREFVAAINGDGRTYYADSVKGRFTISRDNEKNTVYLQMNSLKPEDTAVYYCAADWKSSRSYSYEMDYWGQGTQVTVSS | low polyreactivity
20 | QVQLVESGGGLVQAGGSLRLSCAASGSTFVRNGMGWYRKAPGKERELVAAITRGGSTYYADSVKGRFTISRDNAKNTVYLQMNSLKPEDTAVYYSAKRYRGGYYYPYNYWGLGTQVTVSS | high polyreactivity
21 | QVQLVESGGGLVQAGGSLRLSCAASGSTFVRNVMGWYRQAPGKERELVARISWSGTGTYYADSVKGRFTISRDNAKNTVYLQMNSLKPEDTAVYYCAARSTVYISSDYWGQGTQVTVSS | low polyreactivity
22 | QVQLVESGGGLVQAGGSLRLSCAASGSTFVRYAMGWYRQAPGKERELVASISSSGSTYYADSVKGRFTISRDNAKNTVYLQMNSLKPEDTAVYYCAKQYGGRYGYWGQGTQVTLSS | low polyreactivity
23 | QVQLVESGGGLVQAGGSLRLSCAASGSTFVRYAMGWYRQAPGKERELVATISSRGGRTYYADSVKGRFTISRDNAKNTVYLQMNSLKPEDTAVYYCAADRRAAVPFGYGYWGQGTQVTVSS | high polyreactivity
24 | QVQLVESGGGLVQAGGSLRLSCAASGSTFVSNAMGGYRQAPGKERELVAAISSSGGRTSYADSVKGRFTISRDNAKNTVYLQMNSLKPEDTAVYYCAARFKSVDYVQYYYWGQGTQVTVSS | low polyreactivity
25 | QVQLVESGGGLVQAGGSLRLSCAASGSTFVSNAMGWYRPAPGKERELVAAINGSGGITYYADSVKGRFTISRDNAKNTVYLQMNSLKPEDTAVYYCAAEYDGPSTWVDYYYHYGYWGQGTQVTVSS | low polyreactivity
26 | QVQLVESGGGLVQAGGSLRLSCAASGSTFVSNVMGWYRQAPGKERELVAAITRGGSTKYADSVKGRFTISRDNAKNSVYLQMNSLKPEDTAVYYCAKRLYTRPGWYDYWGQGTQVTVSS | high polyreactivity
27 | QVQLVESGGGLVQAGGSLRLSCAASGSTFVSYAMGWYRQAPGKERDFVAAITWSGGSTYYADSVKGRFTISRDNAKNTVYLQMNSLKPEDTAVYYCNARTGRSPTGFRYWGQGTQVTVSS | high polyreactivity
28 | QVQLVESGGGLVQAGGSLRLSCAASGSTFVSYAMGWYRQAPGKERELVAAISFSDDSTYYADSVKGRFTISRDNAKNTVYFQMHSLKPEDTAVYYCAAASDSYVRVLEGFTFDYWGQGTQVTVSS | low polyreactivity
29 | QVQLVESGGGLVQAGGSLRLSCAASGSTFVTNAMGWYRKAPGKERELVAAIRWSGGNTYYADSVKGRFTISRDNAKNTVYLQMNSLKPEDTAVYYCAAKKHLLPSYRGIRYYYWGQGTQVTVSS | high polyreactivity
30 | QVQLVESGGGLVQAGGSLRLSCAASGSTFVTNAMGWYRQAPGKEREFVAAISNSSGSTYYADSVKGRFTISRDNEKNTVYLQMNSLKPEDTAVYYCNATPDDWLQEDYWGQGTQVTVSS | low polyreactivity
31 | QVQLVESGGGLVQAGGSLRLSCAASGSTFVTYAMGRYRQAPGTERELVAAISRRGGSTYYADSVKGRFTISRDNAKYTVYLQLNSLKPVDTAFYYCAAVQGSYSRDGADDYWGQGTQVTVSS | high polyreactivity
32 | QVQLVESGGGLVQAGGSLRLSCAASGSTFVVNAMGWYRQAPGKERELVAAIAGGGSTNYADSVKGRFTISRDNAKNTVYLQMNRLKPEDTAVYYCAKDLTQSYEYDYWGQGTQVTVSS | low polyreactivity
